Laboratory results: patent US20240132548A1 (Janssen / Centocor, published 2024)
Positions count from the first letter of the chain named.

Assays:
Experiment in all cases: BLI (Octet), biotinylated mAb on streptavidin sensors, culture supernatant
[1] = target: T1, RSV181181 (I152M + K226M + D486N + S215P + P101Q + D489Y) (respiratory syncytial virus, subgroup B …, UniProt O36634 26-109; P13843 137-540)
T1 chain 1: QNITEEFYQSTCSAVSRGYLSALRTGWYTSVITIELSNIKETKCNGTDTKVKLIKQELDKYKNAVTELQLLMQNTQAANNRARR
T1 chain 2: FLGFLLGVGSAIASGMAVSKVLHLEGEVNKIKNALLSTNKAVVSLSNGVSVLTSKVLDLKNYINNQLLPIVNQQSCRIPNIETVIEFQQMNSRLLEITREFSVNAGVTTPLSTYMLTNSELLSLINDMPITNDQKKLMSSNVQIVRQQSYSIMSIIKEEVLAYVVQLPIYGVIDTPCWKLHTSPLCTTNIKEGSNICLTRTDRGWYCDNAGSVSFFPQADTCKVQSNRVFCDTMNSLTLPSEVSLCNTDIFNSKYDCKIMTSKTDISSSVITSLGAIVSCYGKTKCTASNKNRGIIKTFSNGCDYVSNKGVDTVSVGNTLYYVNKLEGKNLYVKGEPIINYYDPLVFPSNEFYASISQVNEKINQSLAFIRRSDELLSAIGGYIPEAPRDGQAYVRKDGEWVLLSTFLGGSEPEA
Experimental: (§1) Quantitative Octet (BioLayer Interferometry) was used for measuring protein concentration in the supernatants at day of harvest and after 7 or 30 days storage at 4° C. CR9501 (an antibody specifically recognizing pre-fusion RSV F protein, which comprises the variable regions of the antibodies 58C5 as described in WO2012/006596) and CR9506 (recognizing pre-fusion and post-fusion RSV F protein and comprising a heavy chain variable region comprising SEQ ID NO: 21, and a light chain variable region comprising SEQ ID NO: 22) were biotinylated by standard protocols and immobilized on Streptavidin biosensors (ForteBio, Portsmouth, UK).
(§2) Afterwards, the coated biosensors were blocked in mock cell culture supernatant. A quantitative experiment was performed as follows: temperature 30° C., shaking speed 1000 rpm, time of the assay 300 sec. The concentration of the protein was calculated using a standard curve. The standard curve was prepared for each coated antibody CR9501 and CR9506 using the pre-fusion RSV FA protein (SEQ ID NO: 19; described previously in WO17174568) diluted in mock medium. […] The data analysis was done using the ForteBio Data Analysis 10.0.1.6 software (ForteBio).

[2] = target: T2, RSV181182 (I152M + K226M + D486N + S215P + P101Q + D489Y + T357R + N371Y) (respiratory syncytial virus, subgroup B …, UniProt O36634 26-109; P13843 137-540)
T2 chain 1: T1 chain 1
T2 chain 2: T1 chain 2 with T221R, N235Y
Experimental: as §1, §2

[3] = target: T3, RSV181177, non-stabilized RSV F B consensus soluble polypeptide with foldon and C-tag (respiratory syncytial virus, subgroup B …, UniProt O36634 26-109; O36634 137-540)
T3 construct: Measured in crude culture supernatant, no furin co-transfection; processing may be incomplete; End 551 is the end of the entry as counted; also called non-stabilized RSV F type B; non-stabilized F
T3 chain 1: T1 chain 1 with Q76P
T3 chain 2: T1 chain 2 with M16I, P79S, M90K, N350D, Y353D
Experimental: as §1, §2

[4] = target: T4, RSV181179 (I152M + K226M + D486N) (respiratory syncytial virus, subgroup B …, UniProt O36634 26-109; P13843 137-540)
T4 construct: Measured in crude culture supernatant, no furin co-transfection
T4 chain 1: T1 chain 1 with Q76P
T4 chain 2: T1 chain 2 with P79S, Y353D
Experimental: as §1, §2

Measured: binding result

B1: CR9506 (antibody, human IgG1, kappa, V domains shown)
VH: EVQLVQSGAEVKKPGSSVKVSCKASGGTFSRSLITWVRQAPGQGLEWMGEISLVFGSAKNAQKFQGRVTITADESTSTAHMEMISLKHEDTAVYYCAAHQYGSGTHNNFWDESELRFDLWGQGTLVTVSS
VL: DIVMTQSPSSLSASVGDRVTIACRASQSIGTYLNWYQQKPGKAPKLLIYAASSLQSGVPSRFSGSGSGTHFTLAISSLQAEDFATYSCQQSYTIPYTFGQGTKLEIKR
notes: Biotinylated for Octet; coated and also used HRP-labelled as detection antibody in the ELISA
binds: all assays above
